# Experimental data: patent US20220213456
# System: T1, OMNI-47 (Peptoniphilus obesi ph1)
# T1 sequence: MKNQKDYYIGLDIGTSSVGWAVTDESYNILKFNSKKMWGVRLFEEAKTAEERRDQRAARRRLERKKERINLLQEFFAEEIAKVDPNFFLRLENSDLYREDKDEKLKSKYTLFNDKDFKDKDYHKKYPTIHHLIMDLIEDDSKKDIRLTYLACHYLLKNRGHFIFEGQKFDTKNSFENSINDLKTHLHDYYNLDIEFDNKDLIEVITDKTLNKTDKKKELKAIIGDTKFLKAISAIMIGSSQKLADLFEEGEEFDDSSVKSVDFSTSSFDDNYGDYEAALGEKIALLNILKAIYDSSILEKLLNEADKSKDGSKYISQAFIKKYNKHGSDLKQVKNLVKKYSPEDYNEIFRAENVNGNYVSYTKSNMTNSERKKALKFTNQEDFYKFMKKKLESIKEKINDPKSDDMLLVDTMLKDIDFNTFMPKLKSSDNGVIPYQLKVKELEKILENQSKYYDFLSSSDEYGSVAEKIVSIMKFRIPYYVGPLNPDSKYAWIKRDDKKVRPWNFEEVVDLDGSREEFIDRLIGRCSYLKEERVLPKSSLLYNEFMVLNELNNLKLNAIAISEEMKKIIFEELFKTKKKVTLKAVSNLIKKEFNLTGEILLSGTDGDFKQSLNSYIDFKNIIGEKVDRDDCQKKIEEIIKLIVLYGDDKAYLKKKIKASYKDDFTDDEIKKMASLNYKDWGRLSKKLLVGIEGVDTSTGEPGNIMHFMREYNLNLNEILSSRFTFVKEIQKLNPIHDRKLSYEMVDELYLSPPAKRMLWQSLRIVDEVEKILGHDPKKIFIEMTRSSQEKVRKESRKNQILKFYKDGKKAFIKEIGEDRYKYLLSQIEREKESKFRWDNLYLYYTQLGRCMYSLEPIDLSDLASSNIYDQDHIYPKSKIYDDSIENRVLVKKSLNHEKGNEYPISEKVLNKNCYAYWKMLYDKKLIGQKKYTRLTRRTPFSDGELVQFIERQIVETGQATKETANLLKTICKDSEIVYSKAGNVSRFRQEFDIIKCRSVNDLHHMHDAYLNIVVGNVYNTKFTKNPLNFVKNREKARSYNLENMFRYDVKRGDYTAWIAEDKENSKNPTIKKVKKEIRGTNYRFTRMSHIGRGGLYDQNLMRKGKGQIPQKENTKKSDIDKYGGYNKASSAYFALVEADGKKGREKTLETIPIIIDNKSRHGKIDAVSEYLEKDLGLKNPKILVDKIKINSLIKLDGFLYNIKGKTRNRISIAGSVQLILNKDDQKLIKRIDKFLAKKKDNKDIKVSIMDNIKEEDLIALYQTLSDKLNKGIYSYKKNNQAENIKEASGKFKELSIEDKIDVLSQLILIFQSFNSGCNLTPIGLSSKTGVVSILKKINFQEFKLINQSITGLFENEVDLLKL
# Assay: cleavage_in_vitro
# Settings: TXTL; PAM NVYR (specific NRTA); V1, V2 tested
sequence,measurement,value
GGAAGAGCAGAGCCUUGGUCUCGUUUGAGAGUUAUGGAAACAUGAUGAGUUCAAAUAAAAAUUUAUUCAAAUCGCCCAUUAUGGGCCGCAGAUGUUCUGCAUUAUAUGCUUGCAAGUUGCAAGCUUUUUUU / GGAAGAGCAGAGCCTTGGTCTCNNNNNNNN / NNNNNNNNGAGACCAAGGCTCTGCTCTTCC [OMNI-47 T2 sgRNA V1 ; pbPOS T2 protospacer 8N PAM library],activity (1-depletion score),0.98
